This is an account of results in patent US20140370030A1 (CENTRE NATIONAL DE LA RECHERCHE SCIENTIFIQUE CNRS, published 2014).

Assay [1] has as its target recombinant human sPLA2-X (human group X secreted phospholipase A2), mature enzyme (human) (UniProt O15496). As to the kind of experiment: indirect ELISA on wells coated with 50 ng recombinant human sPLA2-X; one-site saturation fit, relative Kd. (ELISA stands for enzyme-linked immunosorbent assay.)
Assay [2] has as its target T1, recombinant human sPLA2-X (human group X secreted phospholipase A2), mature enzyme (human, UniProt O15496 43-165).
T1 construct: also called hGX
T1 sequence: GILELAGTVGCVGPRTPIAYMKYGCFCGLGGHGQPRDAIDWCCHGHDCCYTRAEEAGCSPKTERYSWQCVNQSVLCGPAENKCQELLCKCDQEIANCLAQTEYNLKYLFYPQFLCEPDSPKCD
Description: indirect ELISA on coated recombinant human sPLA2-X, anti-mouse IgG-HRP detection; one-site saturation fit.

Assay [3] deals with T1, recombinant human sPLA2-X (human group …). Description: indirect ELISA on wells coated with 50 ng recombinant human sPLA2-X; one-site saturation fit, relative Kd.
Assay [4] has the same target. As to the kind of experiment: indirect ELISA on coated recombinant human sPLA2-X, streptavidin-HRP detection; one-site saturation fit.
For assay [5] the target is unchanged. Description: indirect ELISA on coated recombinant human sPLA2-X.

Usually Kd stands for a measure of binding affinity in units of concentration. Take “commercially available monoclonal antibody H9 (ref. SC-365730, Santa Cruz Biotechnology)”: in assay [1], the dissociation constant (Kd) was found to be 8.94 nM.

B1: monoclonal anti-sPLA2-X antibody #8D9 (antibody, V domains shown)
VH: EVKLVESGGGLVKPGGSLKLSCAASGFTFSNYPMSWVRQTPAKRLEWVATISSGGDDTYYPDSVKGRFTISRDNARNTLYLQMSCLRSEDTALYYCARPQLGPWGQGTTLTVSS
VL: DIVMTQAAPSVPVTPGDSVSISCRSSKSLLHSNGITYLYWFLQRPGQSPQRLIYYMSNLASGVPDRFSGRGSGTDFTLRISRVEAEDVGVYYCMQSLEYPLTFGAGTKLELKR
notes: Mouse monoclonal antibody from a hybridoma, purified by protein A; also called 8D9 antibody; hybridoma CNCM I-4523
Turning to B1, the Kd in assay [2] was 0.246 nM; in assay [3], 0.327 nM.

B2: biotinylated monoclonal antibody #8D9 (antibody, V domains shown)
VH: EVKLVESGGGLVKPGGSLKLSCAASGFTFSNYPMSWVRQTPAKRLEWVATISSGGDDTYYPDSVKGRFTISRDNARNTLYLQMSCLRSEDTALYYCARPQLGPWGQGTTLTVSS
VL: DIVMTQAAPSVPVTPGDSVSISCRSSKSLLHSNGITYLYWFLQRPGQSPQRLIYYMSNLASGVPDRFSGRGSGTDFTLRISRVEAEDVGVYYCMQSLEYPLTFGAGTKLELKR
modifications: biotinylated (Pierce kit ref. 21435); sites not stated
notes: also called #8D9-Biot; 8D9-biot
In the case of B2, the Kd in assay [4] turned out to be 0.353 nM.

B3: biotinylated monoclonal antibody #9C12 (antibody, V domains shown)
VH: QIQLVQSGPELKKPGETVKISCKASGYTFTNYGMNWVKQAPGKGLKWMGWIKTNTGEPTYAEEFKGRFAFSLETSASTAYLQINNLKNEDTATYFCARGNYYRPRRYFDYWGQGTTLTVSS
VL: DIQMSQSPASLSASVGETVTMTCRASENLYSNLAWYQQKQGKSPQLLVYAATNLADGVPSRFSGSGSGTQFSLKINSLQPEDFGSYYCQHFYVTPYTFGGGTKLEIKR
modifications: biotinylated (Pierce kit ref. 21435); sites not stated
notes: also called #9C12-Biot
Take B3: the binding result in assay [5] is on record as “binds”.

B4: monoclonal anti-sPLA2-X antibody #9C12 (antibody, V domains shown)
VH: QIQLVQSGPELKKPGETVKISCKASGYTFTNYGMNWVKQAPGKGLKWMGWIKTNTGEPTYAEEFKGRFAFSLETSASTAYLQINNLKNEDTATYFCARGNYYRPRRYFDYWGQGTTLTVSS
VL: DIQMSQSPASLSASVGETVTMTCRASENLYSNLAWYQQKQGKSPQLLVYAATNLADGVPSRFSGSGSGTQFSLKINSLQPEDFGSYYCQHFYVTPYTFGGGTKLEIKR
notes: Mouse monoclonal antibody from a hybridoma, purified by protein A; also called 9C12 antibody; hybridoma CNCM I-4524
For the molecule B4, the Kd in assay [3] was determined as 0.181 nM.
